Experimental data as given in patent US20180362660A1 (published 2018).
Numbering of substitutions follows the chain as printed. Each block holds one binder with its values, some of them ahead of it.

Columns and labels:
[1] = biological target: T1, mouse penumbra protein (mpen), native, on primary mouse B lymphocytes (mouse, UniProt Q8R3S2 1-283); test: flow cytometry on Balb/C mouse bone marrow cells, FITC-conjugated mAb
T1 construct: whole, on cells; This form has no tag, unlike m5; also called cell surface pen
T1 sequence (looked up): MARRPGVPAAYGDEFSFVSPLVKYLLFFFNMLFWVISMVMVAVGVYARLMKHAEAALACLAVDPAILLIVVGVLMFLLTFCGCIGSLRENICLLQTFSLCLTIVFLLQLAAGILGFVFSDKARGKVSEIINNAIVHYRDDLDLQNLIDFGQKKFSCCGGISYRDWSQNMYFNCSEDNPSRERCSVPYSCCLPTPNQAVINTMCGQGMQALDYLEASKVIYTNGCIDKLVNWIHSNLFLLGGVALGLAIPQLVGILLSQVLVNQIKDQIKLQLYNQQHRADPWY
Procedure: Flow cytometry data were analyzed using FloJo v.10 software. The number in each quadrant denotes %. FIG. 5A: A dot plot of isotype-PE vs. isotype-FITC. FIG. 5B: A dot plot of isotype-PE vs. A296.2-FITC. FIG. 5C: Anti-CD19-PE vs. isotype-FITC. […] FIG. 5E: Anti-B220-PE vs. isotype-FITC. […] FIG. 5G: Anti-CD20-PE vs. isotype-FITC. […] FIG. 5I: Anti-CD138-PE vs. isotype-FITC. […] FIG. 5K: Anti-CD117-PE vs. isotype-FITC. […] FIG. 5M: TER119-PE vs. isotype-FITC. […] FIG. 5O: Anti-Mac-1-PE vs. isotype-FITC. […] Data shown were lymphocyte-gated.
(§1) The medium used for cell staining was Hank's Balanced Salt Solution (HBSS) supplemented with heat-inactivated FBS (5% vol/vol) and sodium azide (0.09% wt/vol). This solution is known as “H5FAH”. All staining and washing were performed at 4° C. The flow cytometer used was a DxP flow cytometer with CYTOTEK™ upgrade (Cytotek). Analysis of flow cytometry data was performed using FLOWJO™ v. 9 (FIG. 3 only) or v.10 (Beckton-Dickinson)(BD). Fluorescence microscopy was performed using a microscope equipped with a digital camera.

[2] = biological target: T2, mouse penumbra protein (mpen) fused to a C-terminal Myc-Hisx6 tag, on BaF3/mpen cells (mouse, UniProt Q8R3S2 1-283); test: flow cytometry, hybridoma supernatant on live BaF3/mpen, GAMIgs-FITC detection
T2 construct: whole, on cells; Stably expressed in the pen-negative mouse pre-B cell line BaF3; also called cell-surface pen; tetraspanin 33; not shown: Myc-Hisx6 tag from vector pcDNA3.1 at the intracellular C-terminus
T2 sequence (looked up): T1 sequence (looked up)
Procedure: as §1

[3] = biological target: T3, human penumbra protein (hpen) (human, UniProt Q86UF1 1-283); test: flow cytometry on human blood mononuclear cells, FITC-conjugated mAb
T3 construct: whole, on cells; Untagged; also called BaF3/hpen; tetraspanin 33
T3 sequence (looked up): T1 sequence (looked up) with G6R, V7A, Y11S, D13E, I103A, R163K, N195D, L210F, V259I

[4] = biological target: T2, mouse penumbra protein (mpen) fused to …; test: indirect immunofluorescence microscopy on live BaF3/mpen
[5] = biological target: T3, human penumbra protein (hpen); test: immunofluorescence microscopy on live BaF3/hpen
[6] = biological target: T2, mouse penumbra protein (mpen) fused to …; test: immunofluorescence microscopy on live BaF3/mpen

binding result [1]: binds
binding result [2]: binds
binding result [3]: binds
B1: mAb 29A6.2 (antibody, V domains shown)
VH: QVQLKQSGPGLVQPSQSLSITCTVSGFSLTSYGVHWVRQSPGKGLEWLGVIWSGGSTDYNAAFISRLSISKDNSKSQVFFKMNSLQADDTAIYYCATFDYWGQGTTLTVSS
VL: DIVITQDELSNPVTSGESVSISCRSSKSLLYKDGKTYLNWFLQRPGQSPQLLIYLMSTRASGVSDRFSGSGSGTDFTLEISRVKAEDVGVYYCQQLVEYPFTFGSGTKLEIKR
notes: Tested as hybridoma supernatant or as purified, FITC-conjugated antibody; also called 29A6.2-FITC; hybridoma 29A6.2

binding result [1]: binds
binding result [4]: binds
binding result [5]: binds
B2: mAb 41B10.13 (antibody, V domains shown)
VH: QVQLKESGPGLVAPSQSLSITCTVSGFSLTSYAISWVRQPPGKGLEWLGVIWTGGGTNYNSALKSRLSISKDNSKSQVFLKMNSLQTDDTARYYCAREGNAYYSNYESTAYWGQGTLVTVSA
VL: B1 VL
notes: The first 19 amino acids of each entry are signal peptides and are left out; Tested as hybridoma supernatant or as purified, FITC-conjugated antibody; also called 41B10.13-FITC; 41B10-FITC

binding result [6]: binds
binding result [1]: binds
binding result [5]: binds
B3: mAb 59E6.8 (antibody, V domains shown)
VH: QVQLQQPGAELVKPGASVKMSCKASGYTFTSYWITWVKQRPGQGLEWIGDIYPGSGSTNYNEKFKSKATLTVDTSSSTAYMQLSSLTSEDSAVYYCARDYYGSSYDYWGQGTTLTVSS
VL: B1 VL
notes: The first 19 amino acids of each entry are signal peptides and are left out; Tested as hybridoma supernatant or as purified, FITC-conjugated antibody; also called 59E6.8-FITC; anti-pen mAb
